# Literature values in article PMC8509922.
# “And” between values parts separate entries of the source, which are not always exact repeats. Equal entries are not always repeated. Where two headings read alike, the source gives them in different places.
# Columns and labels:
# BmpR1 (Homo sapiens) [1] = molecular target: BmpR1 (Homo sapiens) (UniProt P36894)
# Acvr1 (Homo sapiens) [2] = molecular target: Acvr1 (Homo sapiens) (UniProt Q04771)
# BmpR1 (Homo sapiens) [3] = molecular target: BmpR1 (Homo sapiens) (UniProt P36894); remark: listed apart in the source
# Acvr1 (Homo sapiens) [4] = molecular target: Acvr1 (Homo sapiens) (UniProt Q04771); remark: listed apart in the source
# Chain of UniProt Q04771 (Q04771 21-123): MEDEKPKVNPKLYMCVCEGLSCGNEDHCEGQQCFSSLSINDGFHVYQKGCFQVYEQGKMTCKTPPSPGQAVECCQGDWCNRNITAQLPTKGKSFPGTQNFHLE
# Chain of UniProt P36894 (P36894 24-152): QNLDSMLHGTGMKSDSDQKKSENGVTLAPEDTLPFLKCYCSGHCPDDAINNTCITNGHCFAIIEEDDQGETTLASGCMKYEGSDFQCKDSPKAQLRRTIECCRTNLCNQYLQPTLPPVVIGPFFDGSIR
substance,measurement,setting,value
Bmp2 (from UniProt P12643),Kd,BmpR1 (Homo sapiens) [1],0.8 nM
Bmp2/7 heterodimer (from UniProt P12643),Kd,Acvr1 (Homo sapiens) [2],512 nM and 1020 nM
Bmp7 (from UniProt P18075),Kd,BmpR1 (Homo sapiens) [3],56 nM
same,Kd,Acvr1 (Homo sapiens) [4],500 nM
